Molecular target: the molecule itself
Assay: SEC

B1: CC^95–303 with the E191A + K192A mutation (domain or fragment, S. cerevisiae, UniProt Q00402 95-303, looked up)
chain: KDMNFTLELSENLLVECRKLQSSNEAKNEQIKSLKQIKESLSDKIEELTNQKKSFMKELDSTKDLNWDLESKLTNLSMECRQLKELKKKTEKSWNDAAESLKLLKTDLEILTLTKNGMENDLSSQKLHYDKEISELKERILDLNNENDRLLISVSDLTSEINSLQSNRTERIKIQKQLDDAKASISSLKRKVQKKYYQKQHTSDTTVTS
B1: binds.
